B1: HDV Ribozyme (parent)
chain: GGCCGGCAUGGUCCCAGCCUCCUCGCUGGCGCCGGCUGGGCAACAUUCCGAGGGGACCGUCCCCUCGGUAAUGGCGAAUGGGACCCA

Variants of: B1
Assay: self-cleavage, relative activity (ratio to wild type); higher = more cleavage; co-transcriptional

Variant | self-cleavage
A56U A78G | 0.684
G55C G81C | 0.141
G55C G81A | 0.496
A56G A70U | 1.1
G55C C66A | 0.87
C57G A70C | 0.959
C57G A70U | 0.96
C57A U79C | 0.429
G55C G73A | 0.751
C57G C58G | 0.943
C57G C58A | 1.26
C57G U65C | 0.96
C57G U65A | 1.11
G55U G67U | 1.07
A56C A78U | 0.499
A56C A78C | 0.111
C57U C86U | 0.991
C57U C86G | 0.862
A56U | 0.989
A56G | 0.995
A56C | 1

Variant | self-cleavage
C57A G80C | 0.166
G55C A78G | 0.525
G55C A78C | 0.111
G55C A78U | 0.324
G55U A83G | 0.842
G55U A83U | 0.409
A56C C63A | 1.04
A56C C63U | 1.01
G55C A83G | 0.767
G55C G74A | 0.538
G55C G74C | 0.297
G55C G74U | 0.652
G55U C62G | 0.793
C57G U69G | 1.2
C57G U69A | 0.767
C57G U69C | 1.06
C57U C58A | 1.13
A56C G74U | 0.708
A56C G74A | 0.65
A56G G76A | 0.96
A56C G67U | 0.814

Variant | self-cleavage
A56C G67C | 1.01
A56G C84A | 1.16
A56G C84U | 0.973
C57U A71C | 0.923
C57U A71U | 1.08
A56G A77G | 1.11
G55U A56G | 0.912
G55C C75G | 0.208
A56C U72C | 0.539
C57U C62G | 1.25
C57U C62U | 0.799
C57A A70G | 0.852
C57A A70C | 0.773
A56G C75G | 0.175
A56G C75A | 0
C57G A83U | 0.587
C57G A83C | 0.554
C57A C86U | 1.06
C57A C86A | 0.986
C57G G80A | 0.208
A56C C84A | 0.95

Variant | self-cleavage
A56C C84U | 0.718
A56C C75G | 0.115
A56C C75A | 0.116
A56C C75U | 0.0723
A56G C86U | 0.987
G55C C84U | 0.817
G55C C84G | 0.712
C57A G73U | 0.322
C57U G68A | 1.02
C57U G68C | 0.85
A56U U79C | 0.429
A56U U79G | 0.787
A56U U79A | 0.569
A56U C86U | 0.906
A56U C86A | 1.01
A56U C86G | 1.19
C57U A77C | 0.415
G55C U79A | 0.527
A56C C64A | 0.911
A56C C64U | 1.12
G55C U72C | 0.798

Reference: the RNAGym collection of RNA variant scans (doi:10.7554/elife.80360)
